Experimental data reported in the Immune Epitope Database (IEDB).

Legend:
[1] = molecular target: HLA-A*32:01; assay: IEDB peptide-MHC binding, purified MHC/competitive/radioactivity; filed as Kd, often an IC50 or EC50 that approximates it; ≥ and ≤ were set here for values at or beyond the usual limits of such assays
[2] = molecular target: HLA-B*08:01; assay: as above
[3] = molecular target: HLA-B*53:01; assay: as above
[4] = molecular target: HLA-B*35:01; assay: as above
[5] = molecular target: HLA-A*24:02; assay: IEDB peptide-MHC binding, purified MHC/competitive/fluorescence; ≥ and ≤ were set here for values at or beyond the usual limits of such assays
[6] = molecular target: HLA-B*15:01; assay: IEDB peptide-MHC binding, purified MHC/competitive/radioactivity; filed as Kd, often an IC50 or EC50 that approximates it; ≥ and ≤ were set here for values at or beyond the usual limits of such assays
[7] = molecular target: HLA-B*07:02; assay: as above; conditions: source organism: Dengue virus 1 Brazil/97-11/1997
[8] = molecular target: HLA-A*30:01; assay: as above; conditions: source organism: Vaccinia virus WR
[9] = molecular target: HLA-B*51:01; assay: IEDB peptide-MHC binding, purified MHC/competitive/fluorescence; filed as Kd, often an IC50 or EC50 that approximates it; ≥ and ≤ were set here for values at or beyond the usual limits of such assays; conditions: source organism: Vibrio vulnificus YJ016
[10] = molecular target: HLA-A*68:02; assay: IEDB peptide-MHC binding, purified MHC/competitive/radioactivity; filed as Kd, often an IC50 or EC50 that approximates it; ≥ and ≤ were set here for values at or beyond the usual limits of such assays
[11] = molecular target: HLA-A*02:01; assay: IEDB peptide-MHC binding, purified MHC/competitive/fluorescence; ≥ and ≤ were set here for values at or beyond the usual limits of such assays; conditions: source organism: Vaccinia virus
[12] = source organism: Vaccinia virus WR
[13] = source organism: Dengue virus 2 Jamaica/1409/1983
[14] = source organism: Dengue virus 3 Martinique/1243/1999
[15] = source organism: Dengue virus 4 Philippines/H241/1956
[16] = source organism: Vaccinia virus Copenhagen

IIFDIYFAI was tested. Which Kd [1, 12] did it give?
Its Kd is 0.000934 µM.

For IKRGLRTLIL, which Kd [2, 13] is on record?
Its Kd is 10.3 µM.

Which Kd ([2]; source organism: Dengue virus 3 Singapore/8120/1995) does the source give for IMKIGIGVLL here?
The Kd was 4.31 µM.

For INREGKVVGL, which Kd [2, 14] is on record?
Its Kd is 10.9 µM.

For IPERSWNTGF, which Kd [3, 15] is on record?
The Kd was 1.04 µM.

And the Kd [4, 15]?
Its Kd is 0.432 µM.

How did the IC50 ([5]; source organism: Sudan ebolavirus) turn out when IYRGVNFAE was run?
The IC50 was 4.97 µM.

For KLMSGKDVF, which Kd [1, 14] is on record?
Its Kd is 0.507 µM.

What about the Kd [6, 14] of the same sequence?
Its Kd is 0.0056 µM.

KLNKMTVEL was tested. Which Kd [1, 12] did it give?
The Kd was 0.00168 µM.

KPIDDRFAT was tested. Which Kd [7] did it give?
The Kd was 0.0493 µM.

Which Kd [7] does the source give for KPSGSASSMV here?
The Kd was 0.0517 µM.

How did the Kd [2, 13] turn out when KREDQWCGSL was run?
The Kd was 7.72 µM.

Which results are given for KTRNVIRNI?
Kd [1, 12]: 0.319 µM; Kd [8]: 0.0718 nM

How did the IC50 ([5]; source organism: Variola virus) turn out when LEDDRERLK was run?
The IC50 was 2.28 µM.

How did the Kd [1, 16] turn out when LLFFLALSI was run?
Its Kd is 0.5 µM.

And the Kd [6, 16]?
The Kd was 0.134 µM.

How did the Kd [3, 14] turn out when LPVCQSSSMR was run?
Its Kd is 15.5 µM.

What about the Kd [4, 14] of the same sequence?
Its Kd is 0.33 µM.

How did the Kd [9] turn out when LPVLSLNWV was run?
The Kd was 0.278 µM.

Which Kd [1, 16] does the source give for LTIFSTIIF here?
The Kd was 0.264 µM.

LTIPPTAGI was tested. Which Kd [10, 13] did it give?
Its Kd is 0.00207 µM.

MAWRTIMAV was tested. Which Kd [10, 15] did it give?
Its Kd is 0.017 µM.

And the Kd [4, 15]?
The Kd was 0.765 µM.

For MEKSSKYYI, which IC50 [11] is on record?
The IC50 was at least 1680 µM.

And the IC50 ([5]; source organism: Vaccinia virus)?
Its IC50 is 1.66 µM.

For MIFFNPVSF, which Kd [1, 16] is on record?
The Kd was 0.000462 µM.

What about the Kd [6, 16] of the same sequence?
The Kd was 0.00943 µM.

Which Kd [2, 12] does the source give for MMMKRLMFE here?
The Kd was 0.075 µM.
